B1: Ubiquitin-like protein ATG12B (Arabidopsis thaliana (Mouse-ear cress)), Q9LVK3 (parent)
chain: MATESPNSVQKIVVHLRATGGAPILKQSKFKVSGSDKFANVIDFLRRQLHSDSLFVYVNSAFSPNPDESVIDLYNNFGFDGKLVVNYACSMAWG
partner: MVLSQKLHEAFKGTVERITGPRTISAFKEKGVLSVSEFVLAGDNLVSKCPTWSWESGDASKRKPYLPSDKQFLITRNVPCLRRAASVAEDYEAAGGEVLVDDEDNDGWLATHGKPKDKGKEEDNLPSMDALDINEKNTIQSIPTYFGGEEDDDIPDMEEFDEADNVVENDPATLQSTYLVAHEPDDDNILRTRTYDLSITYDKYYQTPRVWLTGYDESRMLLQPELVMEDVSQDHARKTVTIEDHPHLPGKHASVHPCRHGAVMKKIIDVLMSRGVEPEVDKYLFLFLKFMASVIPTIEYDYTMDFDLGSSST

Variants of: B1
Conditions: with atg3_arath ATG3, Q0WWQ1

effect of a mutation on the interaction | Variant
decreasing interaction | MATESPNSVQKIVVHLRATGGAPILKQSKFKVSGSDKFANVIDFLRRQLHSDSLFVAVNSAFSPNPDESVIDLYNNFGFDGKLVVNYACSMAWG

Variants of: B1
Conditions: with atg3_arath ATG3, Q0WWQ1
Remark: another data set of the same source

effect of a mutation on the interaction | Variant
decreasing interaction | MATESPNSVQKIVVHLRATGGAPILKQSKFKVSGSDKFANVIDFLRRQLHSDSLFVYVNSAASPNPDESVIDLYNNFGFDGKLVVNYACSMAWG

— IntAct's records for PubMed 23238393
